The results in this text go back to patent publication CN114106160A.

The target of the experiment is SARS-CoV-2 S1蛋白 (ACRO Biosystems) (SARS-CoV-2) (UniProt P0DTC2). Briefly: BLI, biotinylated SARS-CoV-2 S1 on SA sensor, antibody as analyte, 1:1 model.

As to 人源抗体CR3022 (antibody), the Kd (usually the equilibrium constant for the complex coming apart) was 0.0866 nM; the koff (in general, the first-order rate constant of dissociation) stood at 1.9e-05 s⁻¹; the kon (usually a measure of how fast the partners come together) came to 220000 M⁻¹ s⁻¹.
